Source: patent US20250340637A1 (ABPRO, published 2025)
Where two headings read alike, the source gives them in different places.

B1: 47D10-V7-v5.5 (antibody, V domains shown)
VH: EVQLVESGGGLVQPGGSLKLSCAASGFTFNTYAMNWVRQAPGKGLEWVARIRSKYNNYATYYADSVKDRFTISRDDSKNTAYLQMNSLKTEDTAVYYCVRHGNFGNSYVSWFMYWGQGTLVTVSS
VL: QTVVTQEPSLTVSPGGTVTLTCRSSTGAVTTSNYANWVQQKPGQAFRGLIGGTNKRAPGVPARFSGSLLGGKAALTLSGVQPEDEAIYFCALWYSNLWVFGGGTKLTVL
B2: 47D10-V7-v5.6 (antibody, V domains shown)
VH: EVQLVESGGGLVQPGGSLKLSCAASGFTFNTYAMNWVRQAPGKGLEWVARIRSKYNNYATYYADSVKDRFTISRDDSKNTAYLQMNSLKTEDTAVYYCVRHGNFGNSYVSWFAYWGQGTLVTVSS
VL: QTVVTQEPSLTVSPGGTVTLTCRSSTGAVTTSNYANWVQQKPGQAFRGLIGGTNKRAPGVPARFSGSLLGGKAALTLSGVQPEDEAIYFCMLWYSNLWVFGGGTKLTVL
B3: ABP100s.5.3 (antibody, V domains shown)
VH: EVQLVESGGGLVQPGGSLKLSCAASGFTFNTYAMNWVRQAPGKGLEWVARIRSKYNNYATYYADSVKDRFTISRDDSKNTAYLQMNSLKTEDTAVYYCVRHGNFGNSYVSWFAYWGQGTLVTVSS
VL: QTVVTQEPSLTVSPGGTVTLTCRSSTGAVTTSNYANWVQQKPGQAFRGLIGGTNKRAPGVPARFSGSLLGGKAALTLSGVQPEDEAIYFCALYYSNLWVFGGGTKLEIK
B4: ABP100s.10.0.5 (antibody, V domains shown)
VH: EVQLVESGGGLVQPGGSLKLSCAASGFTFNTYAMNWVRQAPGKCLEWVARIRSKYNNYATYYADSVKDRFTISRDDSKNTAYLQMNSLKTEDTAVYYCVRHGNFGNSYVSWFMYWGQGTLVTVSS
VL: QTVVTQEPSLTVSPGGTVTLTCRSSTGAVTTSNYANWVQQKPGQAFRGLIGGTNKRAPGVPARFSGSLLGGKAALTLSGVQPEDEAIYFCALWYSNLWVFGCGTKLTVL
B5: ABP100s.10.0.6 (antibody, V domains shown)
VH: EVQLVESGGGLVQPGGSLKLSCAASGFTFNTYAMNWVRQAPGKCLEWVARIRSKYNNYATYYADSVKDRFTISRDDSKNTAYLQMNSLKTEDTAVYYCVRHGNFGNSYVSWFAYWGQGTLVTVSS
VL: QTVVTQEPSLTVSPGGTVTLTCRSSTGAVTTSNYANWVQQKPGQAFRGLIGGTNKRAPGVPARFSGSLLGGKAALTLSGVQPEDEAIYFCMLWYSNLWVFGCGTKLTVL

Assays:
Assay in all cases: SPR, Biacore 8K; CD3 Affinity column: Low
HuCD3E [1] = target: T1, HuCD3E (Homo sapiens, UniProt P07766 23-126, limits assumed)
T1 construct: Recombinant analyte in SPR and antigen in ELISA; also called human CD3; human CD3 epsilon
T1 sequence (P07766 23-126 limits assumed): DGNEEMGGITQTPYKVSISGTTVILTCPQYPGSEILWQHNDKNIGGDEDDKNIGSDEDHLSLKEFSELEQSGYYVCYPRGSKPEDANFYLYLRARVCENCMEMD

HuCD3E [2] = target: T1, HuCD3E; remark: listed apart in the source
HuCD3E [3] = target: T1, HuCD3E; remark: listed apart in the source

Binder | Kd (HuCD3E [1]) [nM] | Kd (HuCD3E [3]) [nM] | other results
B1 | > 100 | – | –
B2 | > 100 | – | –
B3 | – | – | Kd (HuCD3E [2]): > 100 nM
B4 | – | > 100 | –
B5 | – | > 100 | –
